T1: KIF3B C-terminal region (BCT), residues 475 to 747 (Mus musculus, UniProt Q61771 475-747)
T1 construct: KIF3B, Mus musculus, NCBI NP_032470.3, C-terminal region residues 475 to 747 (BCT), without expression tags; residues 580 to 675 are resolved; also called KIF3B tail; source: E. coli BL21 (DE3), coexpressed with the KIF3A tail from pETDuet-1, purified within the reconstituted complex
T1 sequence (looked up): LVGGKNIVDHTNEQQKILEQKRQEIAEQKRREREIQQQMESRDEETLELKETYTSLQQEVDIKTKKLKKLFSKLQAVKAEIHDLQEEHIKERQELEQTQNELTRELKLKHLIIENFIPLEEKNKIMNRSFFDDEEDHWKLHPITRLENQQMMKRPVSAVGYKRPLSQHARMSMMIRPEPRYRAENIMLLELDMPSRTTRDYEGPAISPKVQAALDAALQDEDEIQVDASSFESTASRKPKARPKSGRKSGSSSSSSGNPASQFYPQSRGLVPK

B1: ARM domain of APC (APCARM), residues 338 to 1010 (domain or fragment, Mus musculus, UniProt Q61315 338-1010, looked up)
chain: SQDSCISMRQSGCLPLLIQLLHGNDKDSVLLGNSRGSKEARARASAALHNIIHSQPDDKRGRREIRVLHLLEQIRAYCETCWEWQEAHEQGMDQDKNPMPAPVEHQICPAVCVLMKLSFDEEHRHAMNELGGLQAIAELLQVDCEMYGLTNDHYSVTLRRYAGMALTNLTFGDVANKATLCSMKGCMRALVAQLKSESEDLQQVIASVLRNLSWRADVNSKKTLREVGSVKALMECALEVKKESTLKSVLSALWNLSAHCTENKADICAVDGALAFLVGTLTYRSQTNTLAIIESGGGILRNVSSLIATNEDHRQILRENNCLQTLLQHLKSHSLTIVSNACGTLWNLSARNPKDQEALWDMGAVSMLKNLIHSKHKMIAMGSAAALRNLMANRPAKYKDANIMSPGSSLPSLHVRKQKALEAELDAQHLSETFDNIDNLSPKASHRSKQRHKQNLYGDYAFDANRHDDSRSDNFNTGNMTVLSPYLNTTVLPSSSSSRGSLDSSRSEKDRSLERERGIGLSAYHPTTENAGTSSKRGLQITTTAAQIAKVMEEVSAIHTSQDDRSSASTTEFHCVADDRSAARRSSASHTHSNTYNFTKSENSNRTCSMPYAKVEYKRSSNDSLNSVTSSDGYGKRGQMKPSVESYSEDDESKFCSYGQYPADLAHKIHSAN
notes: adenomatous polyposis coli (APC), Mus musculus, NCBI AAB59632.1, ARM domain residues 338 to 1010, without expression tags; also called APC ARM domain; source: E. coli BL21 (DE3), purified; E. coli lysate in the pull-down
B2: KIF3A C-terminal region (ACT), residues 481 to 701 (domain or fragment, Mus musculus, UniProt P28741 481-701, looked up)
chain: VIVGGVDLLAKAEEQEKLLEESNMELEERRRRAEQLRKELEEKEQERLDIEEKYTSLQEEAQGKTKKLKKVWTMLMAAKSEMADLQQEHQREIEGLLENIRQLSRELRLQMLIIDNFIPQDYQEMIENYVHWNEDIGEWQLKCVAYTGNNMRKQTPVPDKKERDPFEVDLSHVYLAYTEESLRQSLMKLERPRTSKGKARPKMGRRKRSAKPETVIDSLLQ
notes: KIF3A, Mus musculus, NCBI NP_032469.2, C-terminal region residues 481 to 701 (ACT); also called KIF3A tail; source: E. coli BL21 (DE3), coexpressed with the KIF3B tail from pETDuet-1, purified within the reconstituted complex

Holding throughout (details): both partners purified
Assay [1] addresses T2, KIF3A/B/KAP3 cargo-binding domain complex (ABK), wild type (Mus musculus, UniProt P28741 481-701; Q61771 475-747; P70188-1 1-693).
T2 construct: KIF3A, Mus musculus, NCBI NP_032469.2, C-terminal region residues 481 to 701 (ACT); KIF3B, Mus musculus, NCBI NP_032470.3, C-terminal region residues 475 to 747 (BCT); KAP3A, Mus musculus, NCBI NP_001292572.1, residues 1 to 693; The His tag is named on the complexes of the SPR experiment; also called ABK (WT); KIF3A/B tail/KAP3 complex; source: E. coli BL21 (DE3), reconstituted and purified (size …)
The assay can be described thus: SPR; Biacore T200; APCARM immobilised on CM5 chip at around 200 RU by amine coupling; kinesin-2 complexes injected at 6.25 to 50 nM, 30 μl/min, 15°C; 20 mM Hepes pH 8.0, 150 mM NaCl, 1 mM dithiothreitol, 0.005% Tween 20; KD from Scatchard plot analysis. (In general: SPR reads the build-up and loss of mass on a sensor chip optically.)

In assay [2] the target is T1, KIF3B C-terminal region (BCT), residues …. Description: cryo-EM structure; ABK complex (KIF3A 481-701, KIF3B 475-747, KAP3 1-693), 0.75 mg/ml, single-particle, two maps.
The target of assay [3] is B1. Description: cryo-EM structure; ABK-APCARM complex, 0.75 mg/ml and 0.375 mg/ml (tilted stage 30° and 40°), single-particle, merged datasets.

T2 sequence (P70188 1-693, one chain of several): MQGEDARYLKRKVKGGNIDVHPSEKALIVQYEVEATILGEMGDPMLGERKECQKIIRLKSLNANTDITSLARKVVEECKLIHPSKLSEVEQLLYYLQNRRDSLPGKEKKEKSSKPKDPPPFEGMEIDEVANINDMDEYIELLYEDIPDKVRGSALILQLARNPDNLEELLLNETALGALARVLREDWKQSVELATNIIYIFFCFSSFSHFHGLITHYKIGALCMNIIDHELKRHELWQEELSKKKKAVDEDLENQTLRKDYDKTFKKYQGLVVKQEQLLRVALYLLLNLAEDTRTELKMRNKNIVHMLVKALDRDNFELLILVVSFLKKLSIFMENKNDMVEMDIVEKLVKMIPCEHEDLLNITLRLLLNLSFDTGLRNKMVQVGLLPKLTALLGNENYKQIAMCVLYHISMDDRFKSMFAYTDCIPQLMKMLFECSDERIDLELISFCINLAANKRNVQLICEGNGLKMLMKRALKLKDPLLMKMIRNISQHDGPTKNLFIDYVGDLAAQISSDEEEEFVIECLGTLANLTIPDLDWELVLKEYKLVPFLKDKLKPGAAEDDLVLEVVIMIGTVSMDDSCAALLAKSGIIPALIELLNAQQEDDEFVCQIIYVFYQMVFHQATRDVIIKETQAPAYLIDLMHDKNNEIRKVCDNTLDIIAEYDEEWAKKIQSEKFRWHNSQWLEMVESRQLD

Take B1: the equilibrium dissociation constant (Kd) in assay [1] came out at 34.7 ± 0.6 nM. As to B2, the binding result in assay [2] and in assay [3] was “binds” throughout.

The term Kd denotes the constant that tells how readily two partners part at equilibrium. High values mean weaker binding, low ones tighter binding.

These data come from paper PMC12551710, “The hook-like adaptor and cargo-binding (HAC) domain in the kinesin-2 tail enables adaptor assembly and cargo recognition” (Science Advances, 2025).
